Blank lines part the entries; values can stand above or below the binder they belong to. *1 amine or outer side, *2 acyl side, *3 side chain or, on linkers, in order; H or OH if unused. Bridges are numbered along the chain shown (N, C = ends). Primed or numbered codes have the meaning given here. [ ]: non-standard residue; d: D form. Phe(4-OMe)(3) = O-methyl-L-tyrosine (4-methoxy-L-phenylalanine), COc1ccc(C[C@H](N[*:1])C(=O)[*:2])cc1; Tyr(3-tBu) = CC(C)(C)c1cc(C[C@H](N)C(=O)O)ccc1O; Abu(4-yl) = O=C([C@H](CC[*:3])N[*:1])[*:2]; β3hR = N=C(N)NCCC[C@H](N)CC(=O)O; αMeK = C[C@](N)(CCCCN)C(=O)O; Abu = CC[C@H](N)C(=O)O; AEA = NCCOCC(=O)O
Key:
[1] = biological target: T1, Rat IL-23R_huFC (rat, UniProt F1LX96 39-369); assay: rat IL-23R competitive binding ELISA
T1 sequence: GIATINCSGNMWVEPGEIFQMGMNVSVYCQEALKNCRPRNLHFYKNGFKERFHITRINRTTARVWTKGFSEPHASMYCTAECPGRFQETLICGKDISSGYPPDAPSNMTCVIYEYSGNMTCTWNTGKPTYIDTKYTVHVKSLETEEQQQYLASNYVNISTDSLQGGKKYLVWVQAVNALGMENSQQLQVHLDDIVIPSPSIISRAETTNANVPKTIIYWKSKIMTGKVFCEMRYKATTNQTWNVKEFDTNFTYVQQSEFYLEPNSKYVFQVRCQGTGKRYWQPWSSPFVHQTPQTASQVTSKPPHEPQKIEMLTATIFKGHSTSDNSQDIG

[2] = biological target: Rat IL-23R_huFC (rat); assay: rat ELISA vs IL-23
[3] = biological target: T2, IL23R_huFC (human, UniProt Q5VWK5 24-353); assay: human ELISA vs IL-23
T2 sequence (looked up): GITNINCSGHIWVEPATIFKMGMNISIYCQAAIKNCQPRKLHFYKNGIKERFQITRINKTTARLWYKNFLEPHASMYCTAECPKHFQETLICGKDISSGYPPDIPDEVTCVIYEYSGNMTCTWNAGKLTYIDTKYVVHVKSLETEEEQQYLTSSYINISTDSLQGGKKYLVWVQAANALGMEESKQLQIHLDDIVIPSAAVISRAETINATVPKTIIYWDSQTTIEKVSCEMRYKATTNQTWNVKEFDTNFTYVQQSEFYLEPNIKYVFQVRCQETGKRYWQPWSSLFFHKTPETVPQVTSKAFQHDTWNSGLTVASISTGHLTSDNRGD

[4] = biological target: T3, IL23R_huFC (human, UniProt Q5VWK5 24-353); assay: IL23-IL23R competitive ELISA
T3 sequence (looked up): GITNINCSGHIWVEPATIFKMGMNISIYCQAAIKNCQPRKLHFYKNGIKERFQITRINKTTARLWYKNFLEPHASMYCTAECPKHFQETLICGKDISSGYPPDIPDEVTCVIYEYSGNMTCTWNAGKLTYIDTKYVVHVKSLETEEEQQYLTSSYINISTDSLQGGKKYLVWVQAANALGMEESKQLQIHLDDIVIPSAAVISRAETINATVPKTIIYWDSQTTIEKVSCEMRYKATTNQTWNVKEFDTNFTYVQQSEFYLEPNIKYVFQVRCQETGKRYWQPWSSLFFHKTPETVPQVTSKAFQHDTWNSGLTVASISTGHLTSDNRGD

[5] = biological target: T4, IL-23R on human cells (IL-23R-expressing DB cells; human NK cells) (human, UniProt Q5VWK5 24-629); assay: cell-based or functional assay
T4 sequence (looked up): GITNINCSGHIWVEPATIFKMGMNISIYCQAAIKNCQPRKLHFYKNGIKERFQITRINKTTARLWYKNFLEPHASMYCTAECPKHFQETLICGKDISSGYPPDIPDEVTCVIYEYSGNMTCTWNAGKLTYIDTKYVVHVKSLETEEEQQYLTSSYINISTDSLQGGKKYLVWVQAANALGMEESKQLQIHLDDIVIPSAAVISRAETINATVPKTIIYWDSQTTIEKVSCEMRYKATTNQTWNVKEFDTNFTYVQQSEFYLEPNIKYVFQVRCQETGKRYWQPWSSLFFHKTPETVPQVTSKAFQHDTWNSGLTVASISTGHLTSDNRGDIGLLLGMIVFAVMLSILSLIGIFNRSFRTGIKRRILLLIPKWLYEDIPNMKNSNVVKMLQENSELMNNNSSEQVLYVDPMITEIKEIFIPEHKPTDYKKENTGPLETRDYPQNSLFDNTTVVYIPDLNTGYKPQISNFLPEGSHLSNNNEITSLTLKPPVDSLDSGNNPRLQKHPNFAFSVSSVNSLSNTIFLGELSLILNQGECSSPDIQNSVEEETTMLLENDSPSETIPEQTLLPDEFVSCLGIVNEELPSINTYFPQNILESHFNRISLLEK

[6] = biological target: T5, IL23R_huFC (human, UniProt Q5VWK5 24-353); assay: IL23-IL23R competitive binding ELISA
T5 sequence (looked up): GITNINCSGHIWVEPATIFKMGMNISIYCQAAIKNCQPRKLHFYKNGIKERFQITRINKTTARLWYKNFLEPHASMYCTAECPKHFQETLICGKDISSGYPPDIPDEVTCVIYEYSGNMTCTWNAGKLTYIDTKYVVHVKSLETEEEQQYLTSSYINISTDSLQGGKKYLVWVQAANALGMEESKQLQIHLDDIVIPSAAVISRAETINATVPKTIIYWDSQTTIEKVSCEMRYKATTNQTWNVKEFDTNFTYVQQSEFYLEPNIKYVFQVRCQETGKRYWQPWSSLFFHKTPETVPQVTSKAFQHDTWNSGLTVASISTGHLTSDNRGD

[7] = biological target: T2, IL23R_huFC; assay: human ELISA vs IL-23; remark: listed apart in the source
[8] = biological target: T6, IL-23R on DB cells (human, UniProt Q5VWK5 24-629); assay: cell-based or functional assay
T6 sequence (looked up): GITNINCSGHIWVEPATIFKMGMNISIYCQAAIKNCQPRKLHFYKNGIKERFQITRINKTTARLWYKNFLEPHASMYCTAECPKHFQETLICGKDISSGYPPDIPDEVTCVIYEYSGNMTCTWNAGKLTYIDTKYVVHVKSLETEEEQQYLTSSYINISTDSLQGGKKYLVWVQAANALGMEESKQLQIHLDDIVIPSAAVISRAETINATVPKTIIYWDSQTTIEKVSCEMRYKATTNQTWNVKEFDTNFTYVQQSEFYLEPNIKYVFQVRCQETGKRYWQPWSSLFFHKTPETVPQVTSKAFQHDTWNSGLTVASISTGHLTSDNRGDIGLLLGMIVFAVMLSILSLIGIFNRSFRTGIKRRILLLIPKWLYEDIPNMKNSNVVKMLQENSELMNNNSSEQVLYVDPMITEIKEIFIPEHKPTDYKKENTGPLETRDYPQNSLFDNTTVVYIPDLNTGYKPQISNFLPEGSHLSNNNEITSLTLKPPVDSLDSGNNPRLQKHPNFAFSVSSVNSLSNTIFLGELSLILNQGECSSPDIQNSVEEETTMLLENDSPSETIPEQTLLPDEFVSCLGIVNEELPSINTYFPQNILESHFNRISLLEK

IC50 [1]: 10 to 25 nM
B1: [Ac-[Pen]-QTWQ[Pen]-[Phe[4-(2-acetylaminoethoxy)]-[2-Nal]-[α-MeVal]-KNN-NH2]2DIG (peptide)
peptide: XQTWQXFXVKNN
modifications: not fully specified; Ac; Pen-Pen disulfide; Phe[4-(2-acetylaminoethoxy)]; 2-Nal; α-MeVal; NH2; DIG linker joins the two subunits

NK cell assay IC50 (IFNγ) [5]: < 10 nM
Binder: XNTWQXFXXKNN (as bracketed in name; Pen-Pen disulfide) [Ac-[Pen]-NTWQ[Pen]-[Phe(CONH2)]-[2-Nal]-[Aib]-[Lys(Ac)]-NN-NH2]

NK cell assay IC50 (IFNγ) [5]: < 10 nM
Binder: XNTWQXFXXKNA (as bracketed in name; Pen-Pen disulfide) [Ac-[Pen]-NTWQ-[Pen]-[Phe]4-(2-aminoethoxy)]-[2-Nal]-[Aib]-[Lys(Ac)]-N-[βAlal-NH2]

IC50 [4]: 922 nM
B3: Ac-CQTWQCYW-[βhArg]-VNG-[AEA]-[(D)Lys]-NH2 (peptide)
peptide: Ac-CQTWQCYW[β3hR]VNG[AEA][dK]-NH2
modifications: disulfide 1-6
SMILES: CC(=O)N[C@H]1CSSC[C@@H](C(=O)N[C@@H](Cc2ccc(O)cc2)C(=O)N[C@@H](Cc2c[nH]c3ccccc23)C(=O)N[C@@H](CCCNC(=N)N)CC(=O)N[C@H](C(=O)N[C@@H](CC(N)=O)C(=O)NCC(=O)NCCOCC(=O)N[C@H](CCCCN)C(N)=O)C(C)C)NC(=O)[C@H](CCC(N)=O)NC(=O)[C@H](Cc2c[nH]c3ccccc23)NC(=O)[C@H]([C@@H](C)O)NC(=O)[C@H](CCC(N)=O)NC1=O

IC50 [2]: 100 to 1000 nM
Binder: XQTWQXFXKKNG (as bracketed in name; thioether cyclo) [Ac-Cyclo-[[Abu]-QTWQ-[Pen]]-[Phe(4-OMe)]-[2-Nal][α-MeLys]-[Lys(Ac)]NG-NH2]

pStat3 HTRF IC50 [8]: 76 nM
Binder: CQTWQCYWXENG (not fully specified; Ac; Ogl; NH2) [Ac-CQTWQCYW-[Ogl]-ENG-NH2]

The remaining lines, values behind:

Binder: Ac-[Abu]QTWQC[Phe(4-OMe)(3)][Tyr(3-tBu)][αMeK]ENG-NH2 (thioether 1-6) [Ac-Cyclo-[[Abu]-QTWQC]-[Phe(4-OMe)]-[Tyr(3-tBu)]-[α-MeLys]-ENG-NH2]
IC50 [2]: 100 to 1000 nM
IC50 [3]: 25 to 100 nM

Binder: CADWVCYFXXFGXK (not fully specified; Ac-; [Phe(CONH2)]; [Orn]; [Dap]; [AEA]; [(D)Lys]; -NH2) [Ac-CADWVCY-[Phe(CONH2)]-[Orn]-[Dap]-FG-[AEA]-[(D)Lys]-NH2]
IC50 [4]: ~6000 nM

Binder: CADWVCYFXXFGXK (not fully specified; Ac-; [hPhe]; [Orn]; [Dap]; [AEA]; [(D)Lys]; -NH2) [Ac-CADWVCY-[hPhe]-[Orn]-[Dap]-FG-[AEA]-[(D)Lys]-NH2]
IC50 [4]: 30000 nM

Binder: CQTWQCYWXLNG (Ac; Z as printed (not explained); NH2) [Ac-CQTWQCYWZ-LNG-NH2]
IC50 [6]: 800 nM

Binder: XQTWQCXXXKNG (as bracketed in name; thioether cyclo) [Ac-Cyclo-[[Abu]-QTWQC]-[2-Nal]-[2-Nal]-[α-MeOrn]-[Lys(Ac)]-NG-NH2]
IC50 [2]: 100 to 1000 nM

B2: Ac-Cyclo-[[Abu]RTWQC]-YWRKFG-[AEA]-[(D)Lys]-NH2 (peptide)
peptide: Ac-[Abu(4-yl)]RTWQCYWRKFG[AEA][dK]-NH2
modifications: thioether 1-6
SMILES: CC(=O)N[C@H]1CCSC[C@@H](C(=O)N[C@@H](Cc2ccc(O)cc2)C(=O)N[C@@H](Cc2c[nH]c3ccccc23)C(=O)N[C@@H](CCCNC(=N)N)C(=O)N[C@@H](CCCCN)C(=O)N[C@@H](Cc2ccccc2)C(=O)NCC(=O)NCCOCC(=O)N[C@H](CCCCN)C(N)=O)NC(=O)[C@H](CCC(N)=O)NC(=O)[C@H](Cc2c[nH]c3ccccc23)NC(=O)[C@H]([C@@H](C)O)NC(=O)[C@H](CCCNC(=N)N)NC1=O
IC50 [2]: 100 to 1000 nM
IC50 [3]: 25 to 100 nM

Binder: XQTWQXFXKENG (as bracketed in name; thioether cyclo) [Ac-Cyclo-[[Abu]-QTWQ-[Pen]]-[Phe(4-OMe)]-[2-Nal]-[α-MeLys]-ENG-NH2]
IC50 [2]: 100 to 1000 nM
IC50 [7]: 100 to 1000 nM

Binder: CQTWQCXWXENG (not fully specified; Ac; X7 = Cha; X9 = hLeu; NH2) [Ac-CQTWQC-[Cha]-W-[hLeu]-ENG-NH2]
IC50 [6]: ~6000 nM

Binder: Ac-CQTWQCYW[dL]ENG-NH2 (cysteine pairing not given here) [Ac-CQTWQCYW-[(D)Leu]-ENG-NH2]
IC50 [6]: 319 nM
